In PMC9005580, “In silico structural, phylogenetic and drug target analysis of putrescine monooxygenase from Shewanella putrefaciens-95” (Journal of Genetic Engineering & Biotechnology, 2022):
Where two headings read alike, the source gives them in different places.

Experiments:
[1] = target: T1, putrescine monooxygenase (SpPMO) (Shewanella putrefaciens, UniProt A0A4D6BRL2); experiment: Csaky iodine oxidation product-formation assay with […] enzyme; Lineweaver-Burk plots; type: biochemical
T1 construct: gene pubA
T1 sequence (A0A4D6BRL2 1-505): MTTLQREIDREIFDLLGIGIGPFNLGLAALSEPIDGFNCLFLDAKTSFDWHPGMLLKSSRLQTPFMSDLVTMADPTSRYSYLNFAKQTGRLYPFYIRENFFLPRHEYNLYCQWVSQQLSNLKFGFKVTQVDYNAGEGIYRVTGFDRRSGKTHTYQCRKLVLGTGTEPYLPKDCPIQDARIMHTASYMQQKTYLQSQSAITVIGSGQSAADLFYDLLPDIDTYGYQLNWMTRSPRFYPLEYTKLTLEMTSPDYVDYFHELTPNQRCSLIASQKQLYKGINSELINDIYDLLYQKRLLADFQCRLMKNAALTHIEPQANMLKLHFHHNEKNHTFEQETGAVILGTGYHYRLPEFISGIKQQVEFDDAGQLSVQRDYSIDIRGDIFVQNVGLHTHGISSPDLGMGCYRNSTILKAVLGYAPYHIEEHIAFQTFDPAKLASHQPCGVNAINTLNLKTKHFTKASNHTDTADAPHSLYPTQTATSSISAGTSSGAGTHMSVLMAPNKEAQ

[2] = substrate: NCCCCN; experiment: Michaelis-Menten kinetics, N-hydroxyl putrescine formation by Csaky iodine oxidation assay (Km); type: biochemical, Shewanella putrefaciens; conditions: FAD
[3] = NADPH putrescine binding pocket: Pro22, Phe23, Gly26, Leu399, Gly402 and Asn406 (docking)

COc1cc(/C=C/C(=O)CC(=O)/C=C/c2ccc(O)c(OC)c2)ccc1O [curcumin]
Ki [1]: 2.6 ± 0.0036 µM

C[C@@H]1O[C@@H](Oc2ccc(CC#N)cc2)[C@H](O)[C@H](O)[C@H]1O [niazirin]
Ki ([1]; read-out: Ki): 18.38 ± 0.008 µM

B1: putrescine monooxygenase (SpPMO) (Shewanella putrefaciens) (protein)
chain: MTTLQREIDREIFDLLGIGIGPFNLGLAALSEPIDGFNCLFLDAKTSFDWHPGMLLKSSRLQTPFMSDLVTMADPTSRYSYLNFAKQTGRLYPFYIRENFFLPRHEYNLYCQWVSQQLSNLKFGFKVTQVDYNAGEGIYRVTGFDRRSGKTHTYQCRKLVLGTGTEPYLPKDCPIQDARIMHTASYMQQKTYLQSQSAITVIGSGQSAADLFYDLLPDIDTYGYQLNWMTRSPRFYPLEYTKLTLEMTSPDYVDYFHELTPNQRCSLIASQKQLYKGINSELINDIYDLLYQKRLLADFQCRLMKNAALTHIEPQANMLKLHFHHNEKNHTFEQETGAVILGTGYHYRLPEFISGIKQQVEFDDAGQLSVQRDYSIDIRGDIFVQNVGLHTHGISSPDLGMGCYRNSTILKAVLGYAPYHIEEHIAFQTFDPAKLASHQPCGVNAINTLNLKTKHFTKASNHTDTADAPHSLYPTQTATSSISAGTSSGAGTHMSVLMAPNKEAQ
Km ([2]; NADPH): 3.81 µM | Vmax [2, 3]: 0.246 µmol/min/mg | kcat [2, 3]: 0.237 s⁻¹
